In publication doi:10.1101/694653 (bioRxiv, 2019):
Read-outs that look alike come from different tables or passages of the source.

Experiments:
Assay in all cases: cross-linking
[1] = target: A. aegypti GPA2-His (Aedes aegypti) (UniProt C6SUP2)
[2] = target: A. aegypti GPA2-FLAG (Aedes aegypti) (UniProt C6SUP2)
[3] = target: A. aegypti GPA2-FLAG (Aedes aegypti) (UniProt C6SUP2); remark: listed apart in the source
cross-linking [4] = target: the molecule itself
cross-linking [5] = target: the molecule itself; remark: listed apart in the source

A. aegypti GPA2-His (from UniProt C6SUP2 1-120) (natural protein)
stoichiometry N [1]: 2

A. aegypti GPA2-FLAG (from UniProt C6SUP2 1-120) (natural protein)
stoichiometry N [2]: 2 | stoichiometry N [3]: 2

B1: H. sapiens GPA2-FLAG (natural protein, UniProt Q96T91 24-129, looked up)
chain: QEAVIPGCHLHPFNVTVRSDRQGTCQGSHVAQACVGHCESSAFPSRYSVLVASGYRHNITSVSQCCTISGLKKVKVQLQCVGSRREELEIFTARACQCDMCRLSRY
stoichiometry N (cross-linking [4]): 2

B2: H. sapiens GPB5-His (natural protein, UniProt Q86YW7 25-130, looked up)
chain: ASSGNLRTFVGCAVREFTFLAKKPGCRGLRITTDACWGRCETWEKPILEPPYIEAHHRVCTYNETKQVTVKLPNCAPGVDPFYTYPVAIRCDCGACSTATTECETI
stoichiometry N (cross-linking [4]): 2

B3: A. aegypti GPB5-His (natural protein, Aedes aegypti, UniProt C6SUR0 1-162, looked up)
chain: VEDSLFISGFEKKAPMLGCHKRVFTYRISQADSKGRECWDHVSVWSCHGRCDSNEISDWRFPYKRSHHPVCMHAGRTRSVATLRHCHPEADAEAKLYEYMEPKSCSCQTCTSMDTSCEGPKQLSTDAATKIFQIDDEEIESEYA
stoichiometry N (cross-linking [5]): 2
